Experimental data published in paper PMC5902578.

Assays:
[1] = molecular target: yeast Hsp90 W300A (S. cerevisiae) (UniProt P02829); experiment: AUC; as a1, with 2 mM ATPγS
[2] = molecular target: yeast Hsp90 W300E (S. cerevisiae) (UniProt P02829); experiment: AUC; as a1, with 2 mM ATPγS
[3] = molecular target: yeast Hsp90 W300A (S. cerevisiae) (UniProt P02829); experiment: AUC; as a1, with 2 mM AMP–PNP
[4] = molecular target: yeast Hsp90 W300E (S. cerevisiae) (UniProt P02829); experiment: AUC; as a1, with 2 mM AMP–PNP

- percent of labelled GR-LBD in complex [1]: < 5%
- percent of labelled GR-LBD in complex [2]: < 5%
- percent of labelled GR-LBD in complex [3]: < 5%
- percent of labelled GR-LBD in complex [4]: < 5%
Substance: human glucocorticoid receptor ligand binding domain (GR-LBD) (domain or fragment)
